In PMC10397247 one finds interaction score data, which are given here for ten molecules.

Assay [1] deals with T1, 4H3606-bN.
T1 chain: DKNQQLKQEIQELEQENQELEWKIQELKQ
The experiment in a line: two-hybrid library CCNG1.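 Note: natural log of median RNA to DNA barcode read ratio; higher means stronger binding.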

Assay [2] has as its target T2, 4H607-bN.
T2 chain: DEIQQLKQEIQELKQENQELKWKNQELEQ
Put plainly: two-hybrid library CCNG1.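 Note: natural log of median RNA to DNA barcode read ratio; higher means stronger binding.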

The target of assay [3] is T3, 4H462-bN.
T3 chain: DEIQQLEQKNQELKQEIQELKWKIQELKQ
Put plainly: two-hybrid library CCNG1.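 Note: natural log of median RNA to DNA barcode read ratio; higher means stronger binding.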

For assay [4], the target named is T4, 4H3843-bN.
T4 chain: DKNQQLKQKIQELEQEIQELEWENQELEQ
The experiment in a line: two-hybrid library CCNG1.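 Note: natural log of median RNA to DNA barcode read ratio; higher means stronger binding.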

The target in assay [5] is T5, 4H2697-bN.
T5 chain: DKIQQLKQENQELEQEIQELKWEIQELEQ
Put plainly: two-hybrid library CCNG1.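 Note: natural log of median RNA to DNA barcode read ratio; higher means stronger binding.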

The target in assay [6] is T6, 4H918-bN.
T6 chain: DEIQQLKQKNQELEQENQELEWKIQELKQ
Put plainly: two-hybrid library CCNG1.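 Note: natural log of median RNA to DNA barcode read ratio; higher means stronger binding.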

For assay [7], the target named is T7, 4H883-bN.
T7 chain: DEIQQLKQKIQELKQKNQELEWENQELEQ
The experiment in a line: two-hybrid library CCNG1.

In assay [8] the target is T8, 4H953-bN.
T8 chain: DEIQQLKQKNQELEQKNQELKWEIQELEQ
Put plainly: two-hybrid library CCNG1.

For assay [9], the target named is T9, 4H4001-bN.
T9 chain: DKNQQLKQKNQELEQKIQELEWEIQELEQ
The experiment in a line: two-hybrid library CCNG1.

Assay [10] concerns the target T10, 4H967-bN.
T10 chain: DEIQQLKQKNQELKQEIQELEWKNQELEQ
The experiment in a line: two-hybrid library CCNG1.

In assay [11] the target is T11, 4H797-bN.
T11 chain: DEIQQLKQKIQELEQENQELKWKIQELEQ
The experiment in a line: two-hybrid library CCNG1.

In assay [12] the target is T12, 4H331-bN.
T12 chain: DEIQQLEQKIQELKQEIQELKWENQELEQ
The experiment in a line: two-hybrid library CCNG1.

Assay [13] concerns the target T13, 4H687-bN.
T13 chain: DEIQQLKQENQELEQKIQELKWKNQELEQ
The experiment in a line: two-hybrid library CCNG1.

For assay [14], the target named is T14, 4H3189-bN.
T14 chain: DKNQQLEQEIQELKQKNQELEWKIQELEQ
The experiment in a line: two-hybrid library CCNG1.

In assay [15] the target is T15, 4H72-bN.
T15 chain: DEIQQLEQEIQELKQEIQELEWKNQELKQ
The experiment in a line: two-hybrid library CCNG1.

Assay [16] concerns the target T16, 4H370-bN.
T16 chain: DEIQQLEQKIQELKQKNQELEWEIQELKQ
Put plainly: two-hybrid library CCNG1.

The target in assay [17] is T17, 4H568-bN.
T17 chain: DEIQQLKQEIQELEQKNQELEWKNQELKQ
Put plainly: two-hybrid library CCNG1.

For assay [18], the target named is T18, 4H3782-bN.
T18 chain: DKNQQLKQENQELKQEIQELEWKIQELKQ
The experiment in a line: two-hybrid library CCNG1.

The target in assay [19] is T19, P10-AA.
T19 chain: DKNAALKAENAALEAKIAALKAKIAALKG
Put plainly: two-hybrid library CCmax. Particulars: mean of both orientations.

Assay [20] concerns the target T20, O6-AA.
T20 chain: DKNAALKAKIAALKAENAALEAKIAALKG
The experiment in a line: two-hybrid library CCmax. The conditions noted are these: mean of both orientations.

In assay [21] the target is T21, O4-AA.
T21 chain: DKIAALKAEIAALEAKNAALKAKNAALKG
Put plainly: two-hybrid library CCmax.

Assay [22] addresses T22, O5-AA.
T22 chain: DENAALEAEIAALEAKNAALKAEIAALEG
Put plainly: two-hybrid library CCmax. Particulars: mean of both orientations.

The target in assay [23] is T23, O7-AA.
T23 chain: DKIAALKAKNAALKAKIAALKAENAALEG
Put plainly: two-hybrid library CCmax. Particulars: mean of both orientations.

Assay [24] has as its target T24, P9-AA.
T24 chain: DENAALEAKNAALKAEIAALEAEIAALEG
The experiment in a line: two-hybrid library CCmax. The conditions noted are these: mean of both orientations.

For assay [25], the target named is T25, O8-AA.
T25 chain: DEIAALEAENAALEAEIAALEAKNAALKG
Put plainly: two-hybrid library CCmax. Particulars: mean of both orientations.

In assay [26] the target is T26, P8A-bH.
T26 chain: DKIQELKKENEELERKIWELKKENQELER
Put plainly: two-hybrid library CCNG1.

The target of assay [27] is T27, P9A-bH.
T27 chain: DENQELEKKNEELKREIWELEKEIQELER
The experiment in a line: two-hybrid library CCNG1.

In assay [28] the target is T28, P7A-bH.
T28 chain: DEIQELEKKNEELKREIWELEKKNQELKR
The experiment in a line: two-hybrid library CCNG1.

The target in assay [29] is T29, O9-bN.
T29 chain: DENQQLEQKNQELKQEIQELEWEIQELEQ
Put plainly: two-hybrid library CCNG1.

The target of assay [30] is T30, O4-bN.
T30 chain: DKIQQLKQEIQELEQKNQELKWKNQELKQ
Put plainly: two-hybrid library CCNG1.

Assay [31] deals with T31, O2-bN.
T31 chain: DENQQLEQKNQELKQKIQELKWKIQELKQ
The experiment in a line: two-hybrid library CCNG1.

For assay [32], the target named is T32, O7-bN.
T32 chain: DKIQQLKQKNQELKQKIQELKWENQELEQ
The experiment in a line: two-hybrid library CCNG1.

The target in assay [33] is T33, O5-bN.
T33 chain: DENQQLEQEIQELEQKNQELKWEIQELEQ
Put plainly: two-hybrid library CCNG1.

Assay [34] addresses T34, O16-bN.
T34 chain: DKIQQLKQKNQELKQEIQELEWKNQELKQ
The experiment in a line: two-hybrid library CCNG1.

Assay [35] concerns the target T35, O6-bN.
T35 chain: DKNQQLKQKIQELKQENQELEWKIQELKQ
Put plainly: two-hybrid library CCNG1.

Assay [36] deals with T36, O8-bN.
T36 chain: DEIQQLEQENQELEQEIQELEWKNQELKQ
Put plainly: two-hybrid library CCNG1.

The target of assay [37] is T37, O3-bN.
T37 chain: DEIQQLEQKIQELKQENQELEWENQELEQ
The experiment in a line: two-hybrid library CCNG1.

Assay [38] deals with T38, P9mSN.
T38 chain: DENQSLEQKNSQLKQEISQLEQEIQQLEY
Put plainly: two-hybrid library CCNG1.

Assay [39] concerns the target T39, P8mSN.
T39 chain: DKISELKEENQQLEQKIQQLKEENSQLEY
Put plainly: two-hybrid library CCNG1.

Assay [40] deals with T40, P7mSN.
T40 chain: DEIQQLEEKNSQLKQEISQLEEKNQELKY
The experiment in a line: two-hybrid library CCNG1.

The target of assay [41] is T41, P9A-bS.
T41 chain: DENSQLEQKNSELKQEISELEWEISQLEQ
Put plainly: two-hybrid library CCNG1.

For assay [42], the target named is T42, P8A-bS.
T42 chain: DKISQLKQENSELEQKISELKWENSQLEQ
Put plainly: two-hybrid library CCNG1.

Assay [43] concerns the target T43, P7bHq.
T43 chain: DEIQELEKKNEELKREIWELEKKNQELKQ
The experiment in a line: two-hybrid library CCNG1.

Assay [44] has as its target T44, P8bHq.
T44 chain: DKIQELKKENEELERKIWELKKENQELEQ
Put plainly: two-hybrid library CCNG1.

In assay [45] the target is T45, P9bHq.
T45 chain: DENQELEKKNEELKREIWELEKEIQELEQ
The experiment in a line: two-hybrid library CCNG1.

DKIQQLKQENQELEQEIQELKWEIQELEQ [4H2697-bN]: the interaction score is -0.924 in [1]; -1.63 in assay [2]; 1.31 in assay [3]; -0.916 in [4]; -0.736 in [5]; -1.97 in assay [6]. Moreover, the interaction score in assay [7] was -0.654; in assay [8], -0.808; in assay [9], -0.819; in assay [10], -1.15; in [11], -0.83; in assay [12] it was -0.941. Moreover, the interaction score in assay [13] was -1.12; in assay [14], -1.43; in [15] it was -1.14; in assay [16], -0.695; in [17] it was -1.07; in assay [18], -1.03.
Take DKIAALKAEIAALEAKNAALKAKNAALKG [O4-AA]: the interaction score is -0.869 in [19]; -0.0762 in [20]; -1.05 in [21]; -0.641 in assay [22]; -1.28 in assay [23]; -1.16 in assay [24]. The interaction score in assay [25] was -0.637.
Consider DKNQELKKEIEELERENWELEKKIQELKR [P6A-bH], for which the interaction score in assay [26] came to 0.924; in [27] it was 0.983; in assay [28], 1.35.
Consider DEIQELEKKNEELKREIWELEKKNQELKR [P7A-bH], for which the interaction score is 1.64 in assay [26], -0.442 in [27] and -0.0377 in assay [28].
On to DKIQQLKQKNQELKQEIQELEWKNQELKQ [O16-bN], for which the interaction score in assay [29] was -0.976; in [30], -0.0984; in assay [31], -0.944; in [32] it was -0.333; in assay [33], -2.84; in assay [34], 0.145. Moreover, the values for the interaction score in [35], in assay [36] and in assay [37] were 0.821, 0.95 and -0.113, respectively.
On to DEIQQLEEKNSQLKQEISQLEEKNQELKY [P7mSN], for which the interaction score is -0.424 in assay [38], 0.927 in assay [39] and -0.219 in [40].
Take DKISQLKQENSELEQKISELKWENSQLEQ [P8A-bS]: the interaction score in assay [41] is -0.26; in [42] it was -0.428.
Turning to DEIQELEKKNEELKREIWELEKKNQELKQ [P7bHq], the results for the interaction score in [43], in [44] and in [45] were -1.98, 2.08 and 0.211, respectively.
For DEIQQLEQKIQELKQENQELEWENQELEQ [O3-bN], the interaction score in assay [29] was -0.842; in assay [30], 2.41; in [32], -1.23; in assay [33] it was -0.619; in assay [35] it was -0.337; in assay [36] it was -0.285. The interaction score in assay [37] was -0.142.
As to DENQQLEQKNQELKQKIQELKWKIQELKQ [O2-bN], the interaction score was 0.719 in assay [29]; -1.97 in assay [30]; -0.646 in [31]; -0.634 in assay [32]; -0.76 in [33]; -1.5 in [35]. In addition, the values for the interaction score in assay [36] and in assay [37] were 0.817 and -1.2, respectively.
